Measurements reported in patent US20190016806A1 (BPS BIOSCIENCE, published 2019).

Molecular target: PD-1 expressed on Jurkat T cells (NFAT luciferase reporter) (human, UniProt Q15116 25-288)
Experiment: cell-based or functional assay

PD-1 expressed on Jurkat T cells (NFAT luciferase reporter), sequence (Q15116 25-288): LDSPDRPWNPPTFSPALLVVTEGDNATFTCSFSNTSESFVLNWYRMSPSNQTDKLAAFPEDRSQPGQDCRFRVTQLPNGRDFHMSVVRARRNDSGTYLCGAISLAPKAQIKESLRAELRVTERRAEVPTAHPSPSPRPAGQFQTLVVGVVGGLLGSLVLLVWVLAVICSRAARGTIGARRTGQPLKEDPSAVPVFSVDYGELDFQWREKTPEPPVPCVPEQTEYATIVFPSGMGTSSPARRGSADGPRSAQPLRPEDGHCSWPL

B1: BPS hAb-10D3 humanized anti-PD-1 neutralizing antibody (antibody, V domains shown)
VH: QVQLQESGPGLVKPSQTLSLTCSVSGYSITSGYFWNWIRQFPGNKLEWIGYISYDGSKNYNPSLKNRVTIIRDTSKNQFSLKLNSVTAEDTATYYCVRGGLPVMDYWGQGTSVTVSS
VL: DIVMTQSPSSLALSVGEKATIQCKSSQSLLDDNNQKNYLAWYQQKPGQPPKLLIFFASTRESGVPDRFIGSGSGTDFTLTISSLQAEDLADYYCQQHYTTPYTFGGGTNVEIK
EC50 of inhibition of PD-1 signaling (NFAT luciferase reporter in Jurkat T cells with PD-L1-expressing HEK293 cells): 0.38 µg/mL
